Where two headings read alike, the source gives them in different places.
Columns and labels:
Assay in all cases: smFRET
yNhp6A [1] = target: T1, yNhp6A (Saccharomyces cerevisiae, UniProt P11632 1-93)
yNhp6A [2] = target: T1, yNhp6A; remark: listed apart in the source
yNhp6A [3] = target: T1, yNhp6A; remark: listed apart in the source
yNhp6A [4] = target: T1, yNhp6A; remark: listed apart in the source

T1 sequence (P11632 whole entry): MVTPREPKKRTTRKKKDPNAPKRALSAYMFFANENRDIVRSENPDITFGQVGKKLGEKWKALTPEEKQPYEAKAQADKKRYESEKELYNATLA

B1: linear_18a (dsDNA)
DNA 1: TGGCGACGGCAGCGAGGC
DNA 2: GCCTCGCTGCCGTCGCCATTTTTTTTTTTTTTT
Binder B1 has a Kd (yNhp6A [1]) of roughly 1 nM.

B2: linear_15a (dsDNA)
DNA 1: CGACGGCAGCGAGGC
DNA 2: GCCTCGCTGCCGTCGCCATTTTTTTTTTTTTTT
B2: binds (yNhp6A [2]).

B3: bulge_15a (dsDNA)
DNA 1: CGACGGCAAAGCGAGGC
DNA 2: GCCTCGCTGCCGTCGCCATTTTTTTTTTTTTTT
B3: binds (yNhp6A [2]).

B4: bulge_18a (dsDNA)
DNA 1: TGGCGACGGAACAGCGAGGC
DNA 2: GCCTCGCTGCCGTCGCCATTTTTTTTTTTTTTT
B4 gave a binding signal (yNhp6A [3]) of roughly 2 fold kon vs linear_18a.

B5: linear_18b (dsDNA)
DNA 1: TGGTTATATCATCTAGGC
DNA 2: GCCTAGATGATATAACCATTTTTTTTTTTTTTT
In the case of B5, the binding signal (yNhp6A [4]) is reported as ~2 fold affinity vs linear_18a.

— article PMC3554232
